# Results reported in the domain aggregation screens of Martell et al. (2025).
# Test: soluble fraction after stress (log2 fold change); higher = more stays soluble; pooled small domains, quantitative proteomics
# Conditions: stress: pH 4
# Summary of the method: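 Custom libraries of small protein domains were pooled and exposed to pH 4. High-throughput quantitative proteomics then measured the log2 fold change in the amount of each domain still soluble, with higher values meaning more stayed soluble. This soluble-fraction fold change stands for aggregation propensity.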
row,Sequence,soluble fraction (log2)
1,HMGFPAPFDGKAVAELRRRLGLTRRGLAEELSVSPSTVDKWEQGDVALRSPALTILKILWHQGLKALPP,≥ 0.43
2,HMGFSDDEHNALADADLKKALEVTTNKSETQYNIAKLIYSYIISLGDKKPYGDWSYDKALSIIHDA,-0.00141
3,HMGGAVQIAEQIAARIKDGALRPGELLPPVRQLAAELEVNPNTVASAYARLRDAGLVATRGRAGTVVLEPP,-0.246
4,HMGGAYATVKLSSSSSQLNVRASASTASRVVARLSHGFRVEVLGVSGDWVKIRALGVEGYVARAYLALEGE,-0.17
5,HMGGEAEVLQSIDEGREVEVRSVAADGSAEVIYRGARWRARAAVGSLAAGRWTIGRVDGTELVLEK,0.215
6,HMGGEEKALLFGDVDIREAGEITQRLEQAEIPYELRGDGSSIFVPRSRVMEARMMISADGLL,-0.901
7,HMGGEKLPAPVAGTLLRYSVAEGARVSEGQTVIILESMKMELEINTPKAGVIHFLAAVGAQVAEGDTLAEI,-0.171
8,HMGGGTPEERLATLAAIAERQEMLLERLGPNNPLVSLGQYSRTLSRMVQLAGFKDASQYFNELPLDFQMPE,-0.437
9,HMGGHLAYGFSRRFGLLIDEQQGEPVIIARPDYSPVHYAEARRIVGQPAALRVVDEQAFNQLLQSQQESGA,-0.383
10,HMGGLENNLKQARNRVGLTQSELARQAGISRQAYSSLESGAANPSTEVALRLAQALSERVESLFYLPE,-0.169
11,HMGGNVYAYRLTASVKSGEQIPANKIEKVKMLSSDLPTNYVPDTVNVTAYKSKLDLQAGTILSTSLLYEN,0.247
12,HMGGPTARQMEVLSLIAQGLPNKRIADELGIAERTVKLHITALLDSLGARNRTHLLVVARERGM,-0.608
13,HMGGQKTREAIFDLIMTNSKITSAQIAEILGIHRSGVARHLKKLQEEGLIKREGPDNGGQWIVIK,-0.298
14,HMGGQYQVRPGETLNQIAARVRPSNMSLSETQKAIIQANPDIFKNGNPNLIFAGDILRIPTGNQI,-0.224
15,HMGGTTLIAKQATVTGDIQFSSNLDIEGRVVGAISVEPGKEAMLHVVEGGSVEGEIRVPSAVINGKVTGDI,-0.775
16,HMGGVEWLTHPIGPRDSLQVLARAGLEARPTSDGDYEIYGQERWPQRDQARLMGWLRRFGQWVWQALYDK,-0.386
17,HMGHEALSSKLDEIQGVGKEKRSLLLDHFKTFERIKNASMEELEAVPSLGKNTAKAVFRFFHS,0.236
18,HMGHLTWTVTGIGHERRARTVAEQMSSVFGVLEARASSAGTVYLEFEREKIDEGGLEASLKRMGVTRVV,-2.05
19,HMGIAFDYDAGRFDQVPPNLVEKWQQAYPAVDVLSELRRMEAWASANPVNRKSNWQRFIVNWLTRAQDRAG,-0.16
20,HMGIAKYRQVTEWIQNRIATGELNRGDQIESENDISRTFGISRQTVRHALGLLEQQGILTRIQGRGTFVRD,0.309
21,HMGIFDIIQEINRQGVTVLLIEQNANMALKIADVGYVLETGRISLTGSGRELLANEAVKKAYL,≥ 0.43
22,HMGIKYTNQRVEILNFLKDNLSHPTVDDVYEGVKKKLTRISKATVYQNLKFLASKGLIQEVNIKGVSRFEP,0.22
23,HMGIRQGKVTSTFVNVRSGASTANAKVGELHKGDVVSLIEKVANFWRIGPGQFVSADYIQVLAS,-0.0122

row,Sequence,soluble fraction (log2)
1,HMGIRYQLADDVTDEQITAMTGKKAKIAAAIKAAGSAVSKMNVAGEMGYDKQNPINKDFMELVDAGIIVPS,-0.121
2,HMGISEKVINIIETYTMIARKKYPSVKSLAEHFNVSERTVHRYLEIIKMIDVVDYDREKKGYFFPYGDR,-0.462
3,HMGISSESIKTFIREIVENEDPKAPLSDQTMVELLAERGIDISRRTVAKYRDEMNLPSSSKRKR,-0.168
4,HMGKAMIDWEREQSILRILLRQKALTTEQAREVYQDGMREDLSALEMGVQRGYFTHEQLREATGGE,0.00817
5,HMGKASNEVYEVISSKIRTGEWAPGYKLPSEPTLAEEFGVSRATVREALQELISRGRIKREQGRGTYVLH,-0.118
6,HMGKAVTLEEARAIIQAKVPGASPDMIQIWEEHGDGRGRYEGELSYNNMKYEFEMDPKTGIIFDWNA,-0.189
7,HMGKEDISQINKLYQNQILDYETYIDTLNSFNIDTKSKDFKNLLDLFIKKSISFETFNKGIINIHNKS,-1.01
8,HMGKFMVQVGAFSRINGAEITRTKYDNLGTHKAIIKNLDGMNRVFLTGFLSEDEARDFIASSNLKGAFIIR,-0.0731
9,HMGKGVDKIMKMADDYSYGKIAGKTVDVMTAKLFQAAYNKAPQKAKDKVDKMNEKQLYIFMMNLWKRF,0.0998
10,HMGKIILLFSDDDGVFDTALYRVRNYDGHRFAQSLGNAEMKWRHSEDEYFDFVLTSLREDGYDIEEIE,-0.686
11,HMGKIINMSKVKQVLRLHTQGVSNRRIALDLGLYKGTVNSYIRKIKDHGYDIAEVLKLDDPVLESKLFA,0.268
12,HMGKKGPELNDNEKIIFNIISKENSMNLDDLKNRTELSNKQWDKAIKGLRSHELVNIEKIDDQLLIHL,-0.598
13,HMGKKQLVVDLQSIITDVPAALKSYGLEIGQDGKSLIYTYDTKGERTGITTLLNDLQKAGLQMTDMKTQQ,-0.0755
14,HMGKPTPASQVATRWLAGDLPETLPVAGPAPSFETLARSVSTDFHPRAVLQELLRLGVAEEADGRVRLLK,-0.0325
15,HMGKQPLYEQLVDLLRDRIENDMETGELLPSERKLAHHFGLSRTTVRLAMDRLETLGLITRVHGKDTFVAE,-0.12
16,HMGKREKTKVANRQAILVAARAVFAELGYEAATVRDIIRGTDLASGTFYNYFKSKEEVFDALADDGA,-0.79
17,HMGKSETALELIKRGHRLIADDAVEITRIGSTLSGTAPELIRNYLEVRGVGVIDVEKLFGVGAVQDSTQI,-0.0577
18,HMGKSPLDALSAREKEVLTYITRGVSINDIAAVLYLSPKTVSTHKTNLMQKLGIENNADLILFGVNHGLND,-0.897
19,HMGLIAPMPGQIRSVAVSVGDVVKKGQTLLTMEAMKMEIRIQALKDGRVTALHAAQGQTVEGEQILIEVE,-0.652
20,HMGLLEMPSERERQVLVLIAEGLSNKEIAARLYLTEGTVKNHAHSLYAKLNVTTRTLAIARARQLGI,-0.731
21,HMGLLLSQLDKDYQRYIDLADSTFRDNQLAVSRGWYNRALGVKAAEKYPKDQIAEIEKKIAERM,-0.108
22,HMGLNEGLNEGQQKVIQHIQENEGIKVKEISLKLNMPIDTVDRHIRVLKNLNLIERRGSRKTGGYFISN,0.111
23,HMGLNELQVKLNEAMQRLSLKHRTVVVMHDIEGIPHDEIAKIVGVSVGTIRSRLFYARRQLQADLGEY,-0.896

row,Sequence,soluble fraction (log2)
1,HMGLNNVSDILRLDFNSFKKKFDKLPSGYKNSVVEQAALMIKSGELDSIKIKDYIEKSMGIELDI,-0.0393
2,HMGLQDLFLNSLRKSKTPVTMFLVKGVKLQGVVTWFDNFSVLLRRDGMSQLVYKHSISTIMP,0.22
3,HMGLSARIAQRIHGLRTAQRMSLEALAARSGVSRSMISLIERNEASPTAVVLEKIATGLNVVLAALFDTP,-0.324
4,HMGLSNYEFNSISQTVKEKLEQGPLTLKALVDETAHLFAEDKVVSVVQWLIDQRDLAYDDHGLLQWKG,-0.871
5,HMGLTLREKMGHVLEMLKGREFLPFVSLFTVEEGRIGVVVTFMSILELVKEGILDLVQTESFGPIHVKAR,0.0455
6,HMGMAETTARILQLLGLLQSRRGWSGQELAERLGVTTRSVRRDVERLRELGYPVHASAGHGGGYQLGA,-0.106
7,HMGMGDALRILFNQAMLIEREQYLQAGAYERNENPVNYANGFKAKTLNTRVGALEVAVPQTRDSAFYPSFL,-0.163
8,HMGMLATFVTSAKVPDDVVYAITKEVFENLDEFKKLHPALEGLTRETMLEGLTAPIHPGALKYYKEAGLM,-1.32
9,HMGMSQQKQSSTVRIIMQDISDANEGLMKMSQIIDAALAEGISETIVRNAISNLHRGGTIYESQTGTYQW,-0.392
10,HMGMTDEELNREEERVVAELEAKDEEELTIYNEEDLTFEETLDLPEGSLMRDRENGMIYLKVLDIWMPY,-0.831
11,HMGMTNRIKELRKAKGYRQEDLAAALGVSRQTIIAVENNKYNPTLELAMKLARHLQTTVEELFQL,-0.885
12,HMGMVEFEIGERDHSEDVSRKLFEAGLIEDASDFNQYMIEKKMDDHLQTGKYQIPKGATKDEILELIVR,-0.674
13,HMGMYAEERHQAIASLARKHGRVSVAELAERFNVTSETIRRDLDSLARRGLLTRVHGGAVPVE,≥ 0.43
14,HMGMYFTEMRKNEGLIALNGVAESNKRVSDLMDNLKDSSSFDAADIKAVKSGSGDASSLMDFELLVT,-0.452
15,HMGNASQAARRQRIVDAALELLQDRPYDQIQMRDVAEGAGVALGTLYRYFPSKEQLFAHVLVE,-0.701
16,HMGNEMQVPNVAGKTVDEAIEIFNNMGLKVAAENKYAQSDDVKEGDVVKTDPSSGRNVKKGSEITLYISQG,0.291
17,HMGNEVMYRQDLSEQELLSFIKKYTGQDEVTHIVVGAPKQRDNTPSPVETKITPFVVQLKAQFPDVNVV,-0.217
18,HMGNFNDMLKYLRVREKMSQAELADKLGVSKSTVGMYELGKREPDFETLEAIADLFNVDMNFLLGK,-0.439
19,HMGNHMSFKMWGEQLQEAFRALETYDTQKAKTILNELVRFPIDSDITKALKGIISNIDDMMA,-0.721
20,HMGNLPPAVINARIKVSPAGRGVFVGFDKGSTSTEAKYADAIRGYLPNIEFNKDDHESVVTVPFNFR,-0.0258
21,HMGNTLAYSEFRQKVQEGAVKQVVLSEDRVTGELTNGDRFTANIVRDPELLKMLNDNNVKYDGKPT,-0.0484
22,HMGNVGEAIEALVKGFQEGNQFQTLLGVTGSGKTFTMANVIAALNKPTLIISHNKTLAAQLYLSLIHIS,-0.255
